# In US20230295343A1 (NINGBO COMGEN BIOTECH, published 2023):
# B1: nanobody A5-8 (VHH)
# VHH: QVQLVESGGGLAQVGGSLRLSCAASGSTFSFKSMGWYREAPGNQRELVAAISSKGIMTNSDSVKGRFTISRDNAKNTVDLHLNNLKPEDTAVYYCNVVEVGVGGLVNVYWGQGTQVTVSS
# notes: not shown: 6xHis tag from vector PET26b
# B2: nanobody N4-38 (VHH)
# VHH: QVQLVESGGGLVQAGGSLRLSCAASGRTGNAYRMGWFRQAPGKEREFVAAISWNGDSTNYADSVKGRFTISRDNAKNTVYLQMNSLKPEDTAVYYCAVVKGIGVPPNMYDYWGQGTQVTVSS
# notes: Alpaca nanobody expressed in E. coli from PET26b; also called N38; N4-38 antibody
# B3: nanobody N4-44 (VHH)
# VHH: QVQLVESGGGLVQAGGSLRLSCAASGSDFSINAMGWYRQAPGKERELVATISSGGSTYYADSVKGRFTISRDNAKNTLYLHMNTLKPEDTAMYYCAILKGATPGYWGQGTQVTVSS
# notes: as for B1
# Legend:
# human FXII = biological target: T1, human FXII (human, UniProt P00748 20-615); experiment: ELISA, plate coated with human FXII at 1 ug/mL, nanobody dilutions, anti-6xHis-HRP
# T1 construct: Bought protein; also called factor XII; natural human FXII
# T1 sequence (looked up): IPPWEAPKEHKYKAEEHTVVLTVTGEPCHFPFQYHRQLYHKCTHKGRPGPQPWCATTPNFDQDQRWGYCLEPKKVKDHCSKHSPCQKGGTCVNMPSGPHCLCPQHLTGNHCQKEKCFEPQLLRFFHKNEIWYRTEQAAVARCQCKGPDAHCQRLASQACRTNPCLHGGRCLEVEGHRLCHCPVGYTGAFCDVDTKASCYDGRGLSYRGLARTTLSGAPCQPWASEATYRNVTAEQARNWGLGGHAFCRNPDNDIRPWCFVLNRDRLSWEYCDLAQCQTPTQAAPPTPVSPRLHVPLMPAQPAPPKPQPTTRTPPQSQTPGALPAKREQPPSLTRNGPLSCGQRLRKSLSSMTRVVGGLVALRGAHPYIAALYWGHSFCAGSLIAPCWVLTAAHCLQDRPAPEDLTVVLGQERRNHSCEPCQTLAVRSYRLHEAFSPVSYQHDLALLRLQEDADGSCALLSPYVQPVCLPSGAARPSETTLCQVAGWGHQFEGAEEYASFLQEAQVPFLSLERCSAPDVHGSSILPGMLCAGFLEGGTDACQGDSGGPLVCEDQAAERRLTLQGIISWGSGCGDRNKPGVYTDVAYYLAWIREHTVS
# Method: The titer detection method in Example 1 was as follows: An ELISA plate was coated with human FXII at a protein concentration of 1 μg/mL overnight at 4° C.; then the ELISA plate was washed with PBST buffer and blocked with 5% skimmed milk powder at room temperature for 2 h; the ELISA plate was washed with PBST buffer (which was prepared with 1 L of PBS and 500 μL of Tween 20), then nanobodies at different dilutions were added, and the ELISA plate was incubated for 2 h at room temperature; the ELISA plate was washed with PBST buffer, then an […] (Abcam) was added, and the ELISA plate was incubated for 1 h at room temperature in the dark; the ELISA plate was washed with PBST buffer, a tetramethylbenzidine (TMB) (R&D Systems) substrate solution was added, and a chromogenic reaction was conducted for 5 min to 10 min; and a stop solution (sulfuric acid with a concentration of 2 M) was added, and an OD value of each well was determined at 450 nm by a microplate reader.
# [1] = biological target: T2, biotinylated FXII protein (UniProt P00748 20-615, biotinylated (sites not given)); experiment: BLI (Fortebio Octet), biotinylated FXII loaded on the biosensor, N4-38 at 50, 20 and 10 ug/mL, 37 C
# T2 sequence (looked up): T1 sequence (looked up)
# Method: (1) A Fortebio Octet special solution M (a PBST solution including BSA with a mass fraction of 0.5%) was prepared, filtered through a 0.22 μm filter membrane, and stored at 4° C. for later use; (2) a biotinylated FXII protein was diluted to 10 μg/mL, a nanobody N4-38 was diluted to 50 μg/mL, 20 μg/mL, and 10 μg/mL, and resulting samples each were added; (3) a biosensor was placed in a corresponding clean well of a spare box, and […] of the Fortebio Octet special solution M was added to each well corresponding to the biosensor; (4) a program was set as follows: first stage Baseline: 60 s, second stage Loading: 200 s, third stage Baseline 2: 100 s, fourth stage Association: 300 s, fourth stage Dissociation: 300 s, and reaction temperature during the whole process: 37° C.; and (5) after a reaction was completed, data analysis was conducted by software.
binder,measurement,setting,value
B1,titer,human FXII,220
B2,titer,human FXII,220
same,Kd,[1],3.07 nM
B3,titer,human FXII,220
